Blank lines part the entries; values can stand above or below the binder they belong to.
Key:
[1] = molecular target: T1, human FcγRIII (CD16), CD16a (F158), on CD16-transfected Jurkat cells (human, UniProt P08637 17-254); assay: CD16 bridging assay, transient
T1 construct: whole, on cells

[2] = molecular target: T2, human FcγRI (CD64) on IFNγ-activated U937 cells (human, UniProt P12314 16-374); assay: CD64 bridging assay, purified
T2 construct: whole, on cells; also called FcγR1

[3] = molecular target: T3, human FcγRIIb (CD32b) on CHO-FcγRII cells (human, UniProt P31994 43-310); assay: CD32b bridging assay, purified
T3 construct: whole, on cells
T3 sequence (looked up): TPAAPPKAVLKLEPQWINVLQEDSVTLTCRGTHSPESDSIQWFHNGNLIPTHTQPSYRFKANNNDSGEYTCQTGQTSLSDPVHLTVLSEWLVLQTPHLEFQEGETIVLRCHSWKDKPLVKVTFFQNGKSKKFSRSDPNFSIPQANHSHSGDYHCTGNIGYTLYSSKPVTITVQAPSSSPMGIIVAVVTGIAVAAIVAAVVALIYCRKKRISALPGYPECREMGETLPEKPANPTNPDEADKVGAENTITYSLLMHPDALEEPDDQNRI

[4] = molecular target: T4, human C1q (Sigma C0660) (human, UniProt P02745 23-245; P02746 28-253; P02747 29-245); assay: C1q ELISA on CD2, purified
T4 construct: Bought protein; also called complement protein C1q
T4 sequence (P02745 23-245 limits assumed, chain 1 of 3): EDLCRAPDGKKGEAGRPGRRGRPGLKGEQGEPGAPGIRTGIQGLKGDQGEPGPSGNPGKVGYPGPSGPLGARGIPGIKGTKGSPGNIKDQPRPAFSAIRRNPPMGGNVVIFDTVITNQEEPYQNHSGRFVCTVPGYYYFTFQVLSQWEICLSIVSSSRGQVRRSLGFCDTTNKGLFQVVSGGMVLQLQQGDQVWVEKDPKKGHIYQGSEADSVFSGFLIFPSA
T4 sequence (P02746 28-253 limits assumed, chain 2 of 3): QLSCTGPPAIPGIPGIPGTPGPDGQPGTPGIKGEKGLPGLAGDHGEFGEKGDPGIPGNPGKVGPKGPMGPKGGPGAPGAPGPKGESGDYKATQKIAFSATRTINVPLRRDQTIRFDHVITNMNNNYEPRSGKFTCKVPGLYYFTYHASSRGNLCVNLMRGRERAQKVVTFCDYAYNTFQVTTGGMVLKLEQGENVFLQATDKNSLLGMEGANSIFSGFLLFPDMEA
T4 sequence (P02747 29-245 limits assumed, chain 3 of 3): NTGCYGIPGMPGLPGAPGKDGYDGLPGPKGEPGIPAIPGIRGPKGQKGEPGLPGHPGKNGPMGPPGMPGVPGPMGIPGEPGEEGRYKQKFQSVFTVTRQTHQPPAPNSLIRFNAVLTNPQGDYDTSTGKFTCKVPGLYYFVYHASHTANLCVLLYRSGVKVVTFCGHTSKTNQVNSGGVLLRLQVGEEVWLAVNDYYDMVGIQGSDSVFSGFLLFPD

[5] = molecular target: T1, human FcγRIII (CD16), CD16a (F158), on …; assay: CD16 bridging assay, purified
[6] = molecular target: Human FcγRIIIa on natural killer (NK) cells of a donor (human, UniProt P08637 17-254); assay: cell-based or functional assay
Sequence of Human FcγRIIIa on natural killer (NK) cells of a donor (P08637 17-254): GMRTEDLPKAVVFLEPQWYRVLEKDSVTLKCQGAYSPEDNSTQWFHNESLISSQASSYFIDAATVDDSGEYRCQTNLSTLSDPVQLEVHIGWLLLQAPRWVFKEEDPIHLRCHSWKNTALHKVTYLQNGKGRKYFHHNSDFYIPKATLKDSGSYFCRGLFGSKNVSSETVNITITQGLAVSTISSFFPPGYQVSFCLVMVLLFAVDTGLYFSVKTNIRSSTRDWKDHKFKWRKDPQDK

[7] = molecular target: T5, GST-tagged FcγRIII, CD16a (V158) (UniProt P08637 17-208, limits assumed); assay: AlphaScreen competition vs huIgG1 beads, purified
T5 construct: the canonical entry carries F there; Captured by biotinylated anti-GST mAb on streptavidin donor beads; also called GST-FcγRIII; not shown: GST tag
T5 sequence (P08637 17-208 F176V limits assumed): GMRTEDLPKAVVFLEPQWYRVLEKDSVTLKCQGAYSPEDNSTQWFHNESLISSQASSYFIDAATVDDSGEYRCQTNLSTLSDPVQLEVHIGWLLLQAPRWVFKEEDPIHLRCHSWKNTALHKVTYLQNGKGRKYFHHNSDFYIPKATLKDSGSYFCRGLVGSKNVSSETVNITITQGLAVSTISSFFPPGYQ
Method: The relative binding affinities to FcγRIII (CD16), of the variant antibodies, was determined using an AlphaScreen assay (Amplified Luminescent Proximity Homogeneous Assay, PerkinElmer, MA, USA). Laser excitation of a donor bead excites oxygen, which if in close proximity to an acceptor bead generates a cascade of chemiluminescent events, ultimately leading to fluorescence emission at 520-620 nm. […] The reaction was carried out for one hour in a 25 μl volume and plates were read in the Fusion Alpha reader (PerkinElmer).

[8] = molecular target: T1, human FcγRIII (CD16), CD16a (F158), on …; assay: summary of Table 5 assays
[9] = molecular target: T4, human C1q (Sigma C0660); assay: C1q ELISA on CD2, transient
[10] = molecular target: T1, human FcγRIII (CD16), CD16a (F158), on …; assay: CD16 bridging assay, purified; remark: listed apart in the source
[11] = molecular target: T1, human FcγRIII (CD16), CD16a (F158), on …; assay: CD16 bridging assay, transient; remark: listed apart in the source
[12] = molecular target: T1, human FcγRIII (CD16), CD16a (F158), on …; assay: CD16 bridging assay, purified; remark: listed apart in the source
[13] = molecular target: T1, human FcγRIII (CD16), CD16a (F158), on …; assay: CD16 bridging assay, transient; remark: listed apart in the source
[14] = molecular target: T5, GST-tagged FcγRIII, CD16a (V158); assay: summary of Table 4 assays (CD16a)
[15] = molecular target: T1, human FcγRIII (CD16), CD16a (F158), on …; assay: CD16 bridging assay, purified; remark: listed apart in the source
[16] = molecular target: T1, human FcγRIII (CD16), CD16a (F158), on …; assay: summary of Table 6 assays
[17] = molecular target: T1, human FcγRIII (CD16), CD16a (F158), on …; assay: CD16 bridging assay, transient; remark: listed apart in the source

T1 sequence (P08637 17-254): as the sequence (P08637 17-254) above
T2 sequence (P12314 16-374): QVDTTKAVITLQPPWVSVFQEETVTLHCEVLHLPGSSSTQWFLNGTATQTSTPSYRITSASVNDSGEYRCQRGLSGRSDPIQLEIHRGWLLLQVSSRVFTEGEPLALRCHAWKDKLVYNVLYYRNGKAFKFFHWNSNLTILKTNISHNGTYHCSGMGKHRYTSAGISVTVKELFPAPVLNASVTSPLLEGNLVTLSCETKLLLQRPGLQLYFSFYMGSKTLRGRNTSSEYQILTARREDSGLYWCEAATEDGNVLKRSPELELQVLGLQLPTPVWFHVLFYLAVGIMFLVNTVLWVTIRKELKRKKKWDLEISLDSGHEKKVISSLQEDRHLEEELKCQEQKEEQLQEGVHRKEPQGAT

B1: chCB6-huIgG1 L328N (antibody, name in EU numbering)
heavy: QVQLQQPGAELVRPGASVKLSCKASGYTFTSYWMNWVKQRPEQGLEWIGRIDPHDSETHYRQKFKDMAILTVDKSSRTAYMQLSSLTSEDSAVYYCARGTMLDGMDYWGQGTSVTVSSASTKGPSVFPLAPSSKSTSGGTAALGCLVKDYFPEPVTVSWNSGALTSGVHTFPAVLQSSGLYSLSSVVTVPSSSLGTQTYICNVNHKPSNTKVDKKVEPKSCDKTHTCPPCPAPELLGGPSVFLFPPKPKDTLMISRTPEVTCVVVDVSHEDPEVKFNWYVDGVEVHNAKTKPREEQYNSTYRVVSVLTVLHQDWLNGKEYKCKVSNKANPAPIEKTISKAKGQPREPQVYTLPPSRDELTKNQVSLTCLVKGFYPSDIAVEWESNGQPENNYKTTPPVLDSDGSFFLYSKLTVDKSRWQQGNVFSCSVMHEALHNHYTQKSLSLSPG
light: QIVLTQSPAIMSASPGEKVTMTCRASSSVSHMHWYQQKSGTSPKRWIYDTSKLASGVPARFSGSGSGTSYSLTISSVEAEDAATYYCQQWSSNPLTFGAGTKLELKRTVAAPSVFIFPPSDEQLKSGTASVVCLLNNFYPREAKVQWKVDNALQSGNSQESVTEQDSKDSTYSLSSTLTLSKADYEKHKVYACEVTHQGLSSPVTKSFNRGEC
notes: copies: 2 + 2
fold decrease in binding vs WT [1]: 2 fold
binding result [2]: binds
fold decrease in binding vs WT [3]: 3 fold
binding result [4]: no binding
fold decrease in binding vs WT [5]: 10 fold

B3: chCB6-huIgG1 Y296A (antibody, name in EU numbering)
heavy: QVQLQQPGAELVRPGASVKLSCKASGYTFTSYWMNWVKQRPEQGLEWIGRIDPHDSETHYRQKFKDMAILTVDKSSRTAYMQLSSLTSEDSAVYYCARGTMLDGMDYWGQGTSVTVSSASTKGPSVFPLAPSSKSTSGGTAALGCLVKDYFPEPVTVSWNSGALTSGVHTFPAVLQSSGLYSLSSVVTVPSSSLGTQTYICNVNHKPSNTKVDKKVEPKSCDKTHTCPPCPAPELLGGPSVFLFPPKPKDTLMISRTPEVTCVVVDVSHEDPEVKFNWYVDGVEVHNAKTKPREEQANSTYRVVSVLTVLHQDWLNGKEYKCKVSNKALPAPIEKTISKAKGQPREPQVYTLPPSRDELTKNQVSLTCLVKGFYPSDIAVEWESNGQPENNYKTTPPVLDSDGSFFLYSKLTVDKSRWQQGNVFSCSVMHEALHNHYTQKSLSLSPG
light: B1 light
notes: copies: 2 + 2
fold decrease in binding vs WT [8]: > 10 fold
fold decrease in binding vs WT [9]: 5 fold
fold decrease in binding vs WT [10]: 5 fold
fold decrease in binding vs WT [4]: 3 fold
fold decrease in binding vs WT [11]: 13 fold

B4: chCB6-huIgG1 S239D/I332E (antibody, name in EU numbering)
heavy: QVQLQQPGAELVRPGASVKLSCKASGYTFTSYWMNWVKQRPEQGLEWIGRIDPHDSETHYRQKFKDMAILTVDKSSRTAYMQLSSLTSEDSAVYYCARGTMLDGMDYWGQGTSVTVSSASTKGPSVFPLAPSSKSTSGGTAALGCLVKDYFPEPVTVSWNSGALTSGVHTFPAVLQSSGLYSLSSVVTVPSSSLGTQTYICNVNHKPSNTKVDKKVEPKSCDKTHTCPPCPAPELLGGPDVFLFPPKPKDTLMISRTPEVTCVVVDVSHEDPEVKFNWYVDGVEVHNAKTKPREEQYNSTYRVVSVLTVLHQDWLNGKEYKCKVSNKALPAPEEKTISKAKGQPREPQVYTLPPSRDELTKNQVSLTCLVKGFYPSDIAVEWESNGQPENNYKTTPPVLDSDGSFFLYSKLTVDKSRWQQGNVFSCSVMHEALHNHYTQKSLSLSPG
light: B1 light
notes: copies: 2 + 2
fold increase in binding vs WT [12]: 8 fold
fold increase in binding vs WT [7]: 26 fold
fold increase in binding vs WT [13]: 12 fold
binding result [4]: binds
fold increase in binding vs WT [14]: > 10 fold

B5: chCB6-huIgG1 D376Y (antibody, name in EU numbering)
heavy: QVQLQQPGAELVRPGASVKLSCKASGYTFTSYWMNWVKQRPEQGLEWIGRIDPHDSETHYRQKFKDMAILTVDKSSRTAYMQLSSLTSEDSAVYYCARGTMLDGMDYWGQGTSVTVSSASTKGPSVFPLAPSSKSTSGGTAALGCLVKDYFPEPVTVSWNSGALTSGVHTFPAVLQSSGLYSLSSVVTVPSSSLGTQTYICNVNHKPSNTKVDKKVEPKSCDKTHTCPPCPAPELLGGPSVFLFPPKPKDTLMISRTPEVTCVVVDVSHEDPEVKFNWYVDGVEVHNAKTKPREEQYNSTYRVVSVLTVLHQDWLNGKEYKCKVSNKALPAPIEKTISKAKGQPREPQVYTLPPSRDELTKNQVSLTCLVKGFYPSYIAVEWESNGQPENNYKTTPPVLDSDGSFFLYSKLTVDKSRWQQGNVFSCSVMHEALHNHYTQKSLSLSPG
light: B1 light
notes: copies: 2 + 2
fold decrease in binding vs WT [15]: 3 fold
fold decrease in binding vs WT [4]: 3 fold

B6: chCB6-huIgG1 D376K (antibody, name in EU numbering)
heavy: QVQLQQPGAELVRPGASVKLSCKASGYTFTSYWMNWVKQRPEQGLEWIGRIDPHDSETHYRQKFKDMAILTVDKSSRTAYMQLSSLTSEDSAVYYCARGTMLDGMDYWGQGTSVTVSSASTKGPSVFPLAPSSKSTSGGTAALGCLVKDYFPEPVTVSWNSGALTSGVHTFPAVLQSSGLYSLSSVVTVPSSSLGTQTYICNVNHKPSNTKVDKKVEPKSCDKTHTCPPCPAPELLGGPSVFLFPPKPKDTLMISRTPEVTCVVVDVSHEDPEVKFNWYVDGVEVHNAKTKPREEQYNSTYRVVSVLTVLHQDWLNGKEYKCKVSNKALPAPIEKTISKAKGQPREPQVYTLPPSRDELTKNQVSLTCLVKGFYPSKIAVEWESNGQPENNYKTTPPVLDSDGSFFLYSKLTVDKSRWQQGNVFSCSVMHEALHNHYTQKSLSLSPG
light: B1 light
notes: copies: 2 + 2
binding result [9]: binds
fold decrease in binding vs WT [16]: > 10 fold
fold decrease in binding vs WT [17]: 15 fold

B8: chCB6-huIgG1 S239D/I332D (antibody, name in EU numbering)
heavy: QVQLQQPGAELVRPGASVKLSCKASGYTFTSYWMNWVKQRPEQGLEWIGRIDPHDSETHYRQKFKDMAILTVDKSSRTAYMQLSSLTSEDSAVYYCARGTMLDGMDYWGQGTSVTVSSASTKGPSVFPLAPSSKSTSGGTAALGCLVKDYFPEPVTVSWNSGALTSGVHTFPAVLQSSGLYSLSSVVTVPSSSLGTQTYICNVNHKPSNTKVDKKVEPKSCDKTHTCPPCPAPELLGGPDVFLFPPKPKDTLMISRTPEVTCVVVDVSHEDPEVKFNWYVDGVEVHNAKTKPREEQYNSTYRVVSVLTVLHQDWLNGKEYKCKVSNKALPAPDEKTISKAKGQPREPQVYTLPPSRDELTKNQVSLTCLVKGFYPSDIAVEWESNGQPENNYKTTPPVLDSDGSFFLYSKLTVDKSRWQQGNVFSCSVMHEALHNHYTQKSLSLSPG
light: B1 light
notes: copies: 2 + 2
fold increase in binding vs WT [12]: 6 fold
fold increase in binding vs WT [7]: 15 fold
fold increase in binding vs WT [13]: 4 fold
binding result [4]: binds
fold increase in binding vs WT [14]: > 10 fold

Continued, in another order:

fold increase in binding vs WT [1]: 10 fold
fold increase in binding vs WT [7]: 4 fold
fold decrease in binding vs WT [2]: 4 fold
fold decrease in binding vs WT [4]: 2 fold
fold increase in binding vs WT [5]: 5 fold
B2: chCB6-huIgG1 triple mutant S298A/E333A/K334A (antibody, name in EU numbering)
heavy: QVQLQQPGAELVRPGASVKLSCKASGYTFTSYWMNWVKQRPEQGLEWIGRIDPHDSETHYRQKFKDMAILTVDKSSRTAYMQLSSLTSEDSAVYYCARGTMLDGMDYWGQGTSVTVSSASTKGPSVFPLAPSSKSTSGGTAALGCLVKDYFPEPVTVSWNSGALTSGVHTFPAVLQSSGLYSLSSVVTVPSSSLGTQTYICNVNHKPSNTKVDKKVEPKSCDKTHTCPPCPAPELLGGPSVFLFPPKPKDTLMISRTPEVTCVVVDVSHEDPEVKFNWYVDGVEVHNAKTKPREEQYNATYRVVSVLTVLHQDWLNGKEYKCKVSNKALPAPIAATISKAKGQPREPQVYTLPPSRDELTKNQVSLTCLVKGFYPSDIAVEWESNGQPENNYKTTPPVLDSDGSFFLYSKLTVDKSRWQQGNVFSCSVMHEALHNHYTQKSLSLSPG
light: B1 light
notes: Assay control; triple mutant as described by Shields et al; also called Triple Mutation S298A, E333A, K334A; copies: 2 + 2
ADCC NK cell, purified (fold increase vs WT) [6]: 21 fold

binding result [9]: no binding
fold decrease in binding vs WT [15]: 3 fold
fold decrease in binding vs WT [16]: > 10 fold
fold decrease in binding vs WT [17]: 15 fold
B7: chCB6-huIgG1 D376W (antibody, name in EU numbering)
heavy: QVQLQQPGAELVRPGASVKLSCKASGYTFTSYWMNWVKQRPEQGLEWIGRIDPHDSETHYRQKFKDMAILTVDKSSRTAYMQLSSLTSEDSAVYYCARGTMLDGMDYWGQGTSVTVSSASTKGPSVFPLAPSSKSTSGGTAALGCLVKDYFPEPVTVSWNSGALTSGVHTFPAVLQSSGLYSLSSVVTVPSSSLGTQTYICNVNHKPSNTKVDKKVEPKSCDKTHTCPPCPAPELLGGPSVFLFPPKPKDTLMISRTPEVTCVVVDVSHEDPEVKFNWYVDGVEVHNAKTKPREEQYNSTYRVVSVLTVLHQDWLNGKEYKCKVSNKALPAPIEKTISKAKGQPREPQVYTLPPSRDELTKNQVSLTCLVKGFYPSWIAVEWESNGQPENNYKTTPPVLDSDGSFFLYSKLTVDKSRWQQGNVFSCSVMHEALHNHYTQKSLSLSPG
light: B1 light
notes: copies: 2 + 2

binding result [1]: no binding
binding result [7]: no binding
binding result [2]: no binding
binding result [3]: no binding
binding result [4]: no binding
B9: chCB6-huIgG1 T299C (antibody, name in EU numbering)
heavy: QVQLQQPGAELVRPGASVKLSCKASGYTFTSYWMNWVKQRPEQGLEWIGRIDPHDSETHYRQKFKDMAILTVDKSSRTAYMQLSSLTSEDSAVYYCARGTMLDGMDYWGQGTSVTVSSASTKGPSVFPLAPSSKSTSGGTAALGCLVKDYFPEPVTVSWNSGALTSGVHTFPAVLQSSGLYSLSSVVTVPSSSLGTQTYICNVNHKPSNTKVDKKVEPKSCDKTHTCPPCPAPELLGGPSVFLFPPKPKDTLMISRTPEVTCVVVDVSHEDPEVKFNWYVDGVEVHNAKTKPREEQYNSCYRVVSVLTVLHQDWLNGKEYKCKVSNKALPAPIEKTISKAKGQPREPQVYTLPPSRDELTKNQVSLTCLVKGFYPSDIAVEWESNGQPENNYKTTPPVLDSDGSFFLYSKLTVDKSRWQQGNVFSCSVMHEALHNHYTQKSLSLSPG
light: B1 light
notes: Assay control; copies: 2 + 2
